Laboratory results reported in patent EP3583122A1.
Positions count from the first letter of the chain named. Names and notes keep the numbering of the source. Read-outs that look alike come from different tables or passages of the source.

How the values were obtained:
[1] = molecular target: EBOV GP[change] (Ebola virus) (UniProt Q05320)
[2] = molecular target: EBOV GP[change] (Ebola virus) (UniProt Q05320); remark: listed apart in the source
[3] = molecular target: EBOV GP[change] (Ebola virus) (UniProt Q05320); remark: listed apart in the source
[4] = molecular target: EBOV GP[change] (Ebola virus) (UniProt Q05320); remark: listed apart in the source
[5] = molecular target: EBOV GP[change] (Ebola virus) (UniProt Q05320); remark: listed apart in the source
[6] = molecular target: EBOV GP[change] (Ebola virus) (UniProt Q05320); remark: listed apart in the source
[7] = molecular target: EBOV GP[change] (Ebola virus) (UniProt Q05320); remark: listed apart in the source
[8] = molecular target: EBOV GP[change] (Ebola virus) (UniProt Q05320); remark: listed apart in the source
[9] = molecular target: EBOV GP[change] (Ebola virus) (UniProt Q05320); remark: listed apart in the source
[10] = molecular target: EBOV GP[change] (Ebola virus) (UniProt Q05320); remark: listed apart in the source
[11] = molecular target: EBOV GP[change] (Ebola virus) (UniProt Q05320); remark: listed apart in the source

EBOV GP[change] (Ebola virus), sequence (Q05320 33-501, chain 1 of 2): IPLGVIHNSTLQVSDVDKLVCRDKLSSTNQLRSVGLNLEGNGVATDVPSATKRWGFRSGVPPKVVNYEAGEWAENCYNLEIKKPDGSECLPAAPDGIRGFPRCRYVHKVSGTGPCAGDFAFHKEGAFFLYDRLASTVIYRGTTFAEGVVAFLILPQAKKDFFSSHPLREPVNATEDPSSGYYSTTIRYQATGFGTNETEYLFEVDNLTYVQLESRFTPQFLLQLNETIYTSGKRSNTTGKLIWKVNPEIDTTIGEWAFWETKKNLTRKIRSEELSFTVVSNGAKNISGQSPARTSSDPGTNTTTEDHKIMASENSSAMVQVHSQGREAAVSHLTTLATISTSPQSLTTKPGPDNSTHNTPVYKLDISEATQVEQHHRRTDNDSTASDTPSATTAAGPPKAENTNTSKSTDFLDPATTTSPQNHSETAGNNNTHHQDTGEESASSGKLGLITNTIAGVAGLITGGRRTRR
EBOV GP[change] (Ebola virus), sequence (Q05320 502-650, chain 2 of 2): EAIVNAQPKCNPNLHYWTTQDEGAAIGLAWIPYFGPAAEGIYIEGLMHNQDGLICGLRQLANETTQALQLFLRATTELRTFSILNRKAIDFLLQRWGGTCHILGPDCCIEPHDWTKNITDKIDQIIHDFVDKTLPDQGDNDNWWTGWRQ

B1: PE-87 H108A (antibody, V domains shown)
VH: QVQLVQSGVTLVQPGGSLRVSCAASGFTFSSYAMSWVRQAPGKGLEWVSAISGLGGSTYYADSVKGRFTISRDNSKNTLYLQMNSLRAEDTAVYYCAKDHRVWAAGYAFDYWGQGALVTVSS
VL: DIVLTQSPSTLSASVGDRVTITCRASQSISSWLAWYQQKPGEAPKLLISDASSLESGVPSRFSGSGSGTEFTLTISSLQPDDFATYYCQQYYSSPTFGGGTKVEIK
Q: With B1 as the binder, how does the Kd [1] read?
A: The Kd was 18 nM.

B2: PE-87 F109A (antibody, V domains shown)
VH: B1 VH with A108H, F109A
VL: B1 VL
Q: With B2 as the binder, how does the Kd [2] read?
A: The Kd was 37 nM.

B3: PE-87 D110A (antibody, V domains shown)
VH: B1 VH with A108H, D110A
VL: B1 VL
Q: How did the Kd [3] turn out when B3 was run?
A: Its Kd is 1.3 nM.

B4: PE-87 Y111A (antibody, V domains shown)
VH: B1 VH with A108H, Y111A
VL: B1 VL
Q: For B4, which Kd [4] is on record?
A: The Kd was 5.9 nM.

B5: PE-87 D99A (antibody, V domains shown)
VH: B1 VH with D99A, A108H
VL: B1 VL
Q: For B5, which Kd [5] is on record?
A: The Kd was 74 nM.

B6: PE-87 H100A (antibody, V domains shown)
VH: B1 VH with H100A, A108H
VL: B1 VL
Q: B6 was tested. Which Kd [6] did it give?
A: Its Kd is 4.5 nM.

B7: PE-87 R101A (antibody, V domains shown)
VH: B1 VH with R101A, A108H
VL: B1 VL
Q: With B7 as the binder, how does the Kd [7] read?
A: The Kd was 9.4 nM.

B8: PE-87 V102A (antibody, V domains shown)
VH: B1 VH with V102A, A108H
VL: B1 VL
Q: Which Kd [8] does the source give for B8 here?
A: The Kd was 4 nM.

B9: PE-87 W103A (antibody, V domains shown)
VH: B1 VH with W103A, A108H
VL: B1 VL
Q: Which Kd [9] does the source give for B9 here?
A: The Kd was 1.3 nM.

B10: PE-87 G106A (antibody, V domains shown)
VH: B1 VH with G106A, A108H
VL: B1 VL
Q: For B10, which Kd [10] is on record?
A: The Kd was 0.03 nM.

B11: PE-87 Y107A (antibody, V domains shown)
VH: B1 VH with Y107A, A108H
VL: B1 VL
Q: For B11, which Kd [11] is on record?
A: The Kd was 30 nM.
